In experiment [1] the target is catalase from sweet pepper (Capsicum annuum L.) fruits (Capsicum annuum (endogenous in sweet pepper fruits)) (UniProt Q9M5L6). In words: SEC; FPLC gel filtration on Superose 12 in 50 mM Tris-HCl, pH 8.0; ammonium sulfate fraction (20-80%) of green pepper fruit extract; catalase activity followed in fractions; column calibrated with rubisco, ferritin, aldolase, phosphorylase b and myoglobin. (SEC sorts molecules by how far they enter the pores of the column.)

Experiment [2] has the same target. In words: native gel or EMSA; Hedrick and Smith method: non-denaturing PAGE at 5-7% acrylamide, catalase activity staining in gels; BSA monomer, dimer, trimer and tetramer as molecular weight standards. (In general: A gel shift assay detects complexes by their altered migration in electrophoresis.)

Results on one substance are retold here after publication PMC6769641.

Usually stoichiometry N stands for the number of molecules, sites or subunits per partner or assembly.

As to “catalase from sweet pepper (Capsicum annuum L.) fruits (from UniProt Q9M5L6 1-492) (enzyme)”, the stoichiometry N in experiment [1] and in experiment [2] was 2 in each case.
